Drawing on US20210139964, “RNA TAGGING SYSTEM FOR VISUALIZATION OF SINGLE MRNA MOLECULES” (ALBERT EINSTEIN COLLEGE OF MEDICINE, published 2021), this text covers Kd for three molecules.

Where two headings read alike, the source gives them in different places.

Series [1] concerns the target MS2 coat protein (literature) (Enterobacteria phage MS2) (UniProt P03612). To be noted: CITED Lowary and Uhlenbeck 1987, cited from earlier work.
The target in series [2] is MS2 coat protein (MCP) (Enterobacteria phage MS2, UniProt P03612 P03612:2-130). Description: EMSA; sub-nanomolar; exact value only in figure; about 10-fold tighter than wt (p109); 10 mM Tris, 100 mM NaCl, 0.1 mM EDTA, tRNA, heparin, room temperature, 3 h. To be noted: tags: MBP-TEV N-terminal, C-terminal 6xHis (plasmid pET336, E. coli Rosetta2); chain copies: 2 (inferred); label: 5' fluorescein; hairpin. How it is done: Design of a new MBS-MCP system faithfully recapitulating mRNA kinetics —We considered four variables that could influence the ability of the MS2 array to block degradation by […] when MCP is bound. First, the loop sequence can affect the affinity of MCP for the stem. […] The current MBSV5 and MBSORF versions have a U to C change in position −5 of all loops (FIG. 2A-C). We compared the high affinity C-variant loops to the wt-loops (FIG. 2D). The affinities of the MBS-MCP binding were analyzed by electrophoretic mobility shift assay (EMSA). As a control, we used the original loop sequence from the bacteriophage with a U or a C at position −5. In addition, C or U variants were generated for two MS2 loops (Loop1 and Loop2), each of them with a different stem sequence (FIG. 2D). Apparent equilibrium dissociation constants (Kd) were extracted from plots of MCP bound versus free (FIG. 2E-G).
Complexes were monitored and quantified by EMSA as previously described (Chao et al., 2008). In brief, 100 pM RNAs were incubated at room temperature for three hours with 2 fold dilutions of MCP in 10 mM Tris, 100 mM NaCl, 0.1 mM EDTA, 0.01 mg/mL tRNA, […] heparin and 0.01% IGEPAL CA630. Complexes were then run using 5% native PAGE in 0.5×TBE and visualized using the Typhoon 9400 variable mode laser scanner (GE Healthcare).
On the technique in general: Mobility shift assays separate free from complexed probe on a gel.

Sequence of MS2 coat protein (literature) (Enterobacteria phage MS2) (P03612 2-130): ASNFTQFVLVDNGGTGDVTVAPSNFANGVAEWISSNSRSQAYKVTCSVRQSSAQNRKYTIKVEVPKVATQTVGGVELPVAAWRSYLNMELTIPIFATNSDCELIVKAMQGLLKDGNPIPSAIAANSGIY
Sequence of MS2 coat protein (MCP) (P03612 2-130, one chain of several): as the sequence (P03612 2-130) above

“MS2 C-variant operator loop (literature)”: the Kd in series [1] (dissociation about 90 times slower than wt) is 1 nM.

With MS2 wt operator loop (literature), the Kd in series [1] (Valegard et al.) is 10 nM.

On to ACAUGAGGAUCACCCAUGU (ssRNA) [MS2 C-variant stem loop], for which, in series [2], the Kd is under 1 nM.

A word on the Kd: it is a measure of binding affinity in units of concentration.
